Target: T1, IL-17A (human, UniProt Q16552)
T1 sequence: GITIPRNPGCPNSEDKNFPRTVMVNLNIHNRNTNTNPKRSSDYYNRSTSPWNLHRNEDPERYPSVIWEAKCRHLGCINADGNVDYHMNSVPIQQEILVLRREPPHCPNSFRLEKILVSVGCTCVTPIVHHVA
Assay: cell-based or functional assay

B1: ixekizumab (antibody, V domains shown)
VH: QVQLVQSGAEVKKPGSSVKVSCKASGYSFTDYHIHWVRQAPGQGLEWMGVINPMYGTTDYNQRFKGRVTITADESTSTAYMELSSLRSEDTAVYYCARYDYFTGTGVYWGQGTLVTVSS
VL: DIVMTQTPLSLSVTPGQPASISCRSSRSLVHSRGNTYLHWYLQKPGQSPQLLIYKVSNRFIGVPDRFSGSGSGTDFTLKISRVEAEDVGVYYCSQSTHLPFTFGQGTKLEIKR
  Relative potency of Formulation A (% relative to Formulation B; ratio of EC50s), 1 month at 5° C.: 101%
  Relative potency of Formulation A (% relative to Formulation B; ratio of EC50s), 1 month at 25° C.: 98%
  Relative potency of Formulation A (% relative to Formulation B; ratio of EC50s), 1 month at 35° C.: 101%
  Relative potency of Formulation A (% relative to Formulation B; ratio of EC50s), 6 months at 5° C.: 103%
  Relative potency of Formulation A (% relative to Formulation B; ratio of EC50s), 12 months at 5° C.: 98%
